Starred links: 1 amine or outer side, 2 acyl side, 3 side chain; linkers in the order of their positions; H or OH if unused. Positions of bridges follow the written chain, without caps; N, C: chain ends. Non-standard residues stand in square brackets, D forms with d. Residues, ends and D or L forms follow the SMILES beside them. Chains are numbered I, II in the order given. Actinocin(9to1) = Cc1c2oc3c(C)ccc(C(=O)[*:1])c3nc-2c(C(=O)[*:2])c(N)c1=O; NMeV = CN[C@H](C(=O)O)C(C)C; Sar = CNCC(=O)O
Experiments:
cGAS [1] = biological target: T1, cGAS (Homo sapiens, UniProt Q8N884); assay: Thin-layer chromatography based (radiolabeled TLC) cGAS activity assay with DNA intercalators; format: biochemical; set-up: DNA-dependent human cGAS activity was assayed with recombinant full-length cGAS and HT-DNA; implied by Ni-NTA capture and imidazole elution; made in house; host or cells: BL21-RIL DE3 E. coli; conditions: 100 μM concentration
Protocol: Quinacrine intercalation can lengthen the B-form DNA helix but otherwise would not grossly alter conformation (Hossain et al., (2008). DNA intercalation by quinacrine and methylene blue: a comparative binding and thermodynamic characterization study. DNA Cell Biol 27, 81-90). To support the proposed mechanism of action, other DNA intercalators were tested for effects on cGAS activity. The radiolabeled TLC assay was employed in order to avoid possible complications in data interpretation from compounds interacting with the RNA biosensor. […] Importantly, the enzyme-independent effect of compounds on fluorescence of the RNA biosensors can easily be analyzed in control reactions, which allows one to distinguish compounds in the screen that likely interact with the DNA instead of the enzyme directly.
DNA-dependent human cGAS activity was assayed with recombinant full-length cGAS and HT-DNA (Sigma-Aldrich, St Louis, Mo.). cGAS (estimated final concentration 1.5 μM) or equal volumes of water were incubated with HT-DNA (final concentration 0.1 mg/ml) in the presence of 250 μM ATP and GTP and [a-32P] ATP or GTP (˜30 nM) as indicated. All reactions included 100 mM NaCl, 10 mM MgCl2, 40 mM Tris-HCl (pH 7.5), and reactions were incubated at 37° C. for 1.5 hr. Reactions were terminated with the addition of 5 U of alkaline phosphatase (New England Biolabs) and incubation at 37° C. for 30 min. One microliter of each reaction was spotted onto a PEI-Cellulose F thin-layer chromatography plate (EMD Millipore), and reaction products were separated with the use of 1.5 M KH2PO4 (pH 3.8) as solvent. Plates were dried and radiolabeled products were detected with a phosphor screen and the Typhoon phosphorimager (GE Life Sciences).

Spinach2 aptamer = assay: Fluorescence of dye-binding Spinach2 aptamer in presence of quinacrine (control); conditions: dose-dependent (FIG. 10)
Description: FIG. 10 illustrates dose-dependent loss of fluorescence in presence of QC for both the 2′, 3′-cGAMP biosensor and Spinach2 aptamer.
Quinacrine is a DNA intercalator that may disrupt biosensor function by intercalating into the RNA helices.

cGAS [2] = conditions: radiolabeled TLC assay, Gray et al. 2015; cited from earlier work
cGAS [3] = biological target: T1, cGAS; assay: cGAS inhibition assay read out by RNA-based fluorescent biosensor; format: biochemical; set-up: implied by Ni-NTA capture and imidazole elution; made in house; host or cells: BL21-RIL DE3 E. coli; conditions: decrease of signal independent of enzyme activity, called artefactual, read-out: apparent IC50
Protocol: To initiate the enzyme reaction, 0.5 μL of HT-DNA was added to 2.5 μL of 6× enzyme reaction solution containing cGAS, GTP, ATP and cGAS reaction buffer. Generally, final concentrations are 100m/mL HT-DNA, 1.5 μM cGAS, 200 μM GTP, 200 μM ATP, and cGAS reaction buffer (40 mM Tris-HCl (pH 7.5), 100 mM NaCl, 10 mM MgCl2). The reaction was incubated at 37° C. for 2 hours to allow the enzyme reaction to proceed. […] To initiate the fluorescent biosensor reaction, 3 μL of the enzyme reaction was added to 27 μL of biosensor reaction solution containing renatured RNA, DFHBI (or DFHBI-1T), and biosensor activation buffer. Final concentrations are 200 nM RNA, 10 μM DFHBI (or DFHBI-1T), 40 mM HEPES, pH 7.5, 125 mM KCl, 10 mM MgCl2, and 0.1×cGAS reaction buffer (40 mM Tris-HCl (pH 7.5), 100 mM NaCl, 10 mM MgCl2). […] For the inhibition assay, due to the fluorescence of Quinacrine dihydrochloride, DFHBI-1T was used instead. Samples containing only Quinacrine dihydrochloride of varied concentration in the buffer were used for background fluorescence subtraction.

[4] = In vitro fluorescence assay of GEMM-II riboswitch-based biosensors with c-di-GMP (binding affinity, turn-on); conditions: for Kd: ligand c-di-GMP; for fold turn-on: 100 nM RNA, 100 μM c-di-GMP
Protocol: (§1) In vitro fluorescence assays were carried out in a buffer containing 40 mM HEPES, pH 7.5, 125 mM KCl. Other conditions, including temperature, concentrations of MgCl2, DFHBI (or DFHBI-1T), ligand (or cell extract) and RNA were varied in different experiments and are indicated in the figures. The RNA was renatured in buffer at 70° C. for 3 min and cooled to ambient temperature for 5 min prior to addition to the reaction solution. DFHBI (or DFHBI-1T) was added to a solution containing buffer and ligand, and then RNA was added at the end before fluorescence measurement. Binding reactions were performed either in 100 μL volumes (96-well plate) or 30 μL (384-well plate) and were incubated at the indicated temperature in either a Corning Costar 3915 96-well black plate or Greiner 781077 384-well black plate until equilibrium was reached, which typically takes 30 to 60 minutes. The fluorescence emission was measured using a Molecular Devices SpectraMax Paradigm Multi-Mode detection platform plate reader (Sunnyvale, Calif.) with the following instrument parameters (for DFHBI): 448 nm excitation, 506 nm emission. In case of DFHBI-1T 470 nm excitation and 510 nm emission was used.
(§2) To measure the binding affinities of 2′, 3′-cGAMP biosensors, fluorescence assays were performed with the following conditions: 37° C., 3 mM MgCl2, 200 nM RNA, and 10 μM DFHBI. The 2′, 3′-cGAMP concentration (ccGAMP) was varied, and the fluorescence of the sample with DFHBI but no RNA was subtracted as background to determine relative fluorescence units. The ratio between the fraction of biosensor that is bound by 2′, 3′-cGAMP and the total 2′, 3′-cGAMP biosensor concentration is given as:
(§3) where Fmin is the fluorescence of the sample containing no 2′,3′-cGAMP, while Fmax is the fluorescence of the sample containing highest concentration of 2′,3′-cGAMP (100 μM). The dissociation constants Kd were determined by least squares fitting to the following equation in Graphpad Prism software: […]

[5] = In vitro fluorescence assay of GEMM-II riboswitch-based biosensors with 2′,3′-cGAMP (binding affinity, turn-on); conditions: for fold turn-on / Kd: 200 nM RNA; for fold turn-on: 100 μM 2′,3′-cGAMP; for Kd: ligand 2′,3′-cGAMP, 37° C., 3 mM Mg2+, 10 μM DFHBI, read-out: Kd (apparent dissociation constant)
Protocol: as §1, §2, §3

[6] = In vitro fluorescence assay of GEMM-II riboswitch-based biosensors with 3′,3′-cGAMP (binding affinity, turn-on); conditions: for fold turn-on: 100 nM RNA, 100 μM 3′,3′-cGAMP; for Kd: ligand 3′,3′-cGAMP
Protocol: as §1, §2, §3

E. coli BL21-Star cells = assay: In vivo fluorescence assay by flow cytometry, biosensor co-expressed with cyclic dinucleotide synthases (WspR, DncV, cGAS); conditions: live E. coli, DFHBI-1T, DncV or cGAS co-expressed

T1 sequence (Q8N884 whole entry): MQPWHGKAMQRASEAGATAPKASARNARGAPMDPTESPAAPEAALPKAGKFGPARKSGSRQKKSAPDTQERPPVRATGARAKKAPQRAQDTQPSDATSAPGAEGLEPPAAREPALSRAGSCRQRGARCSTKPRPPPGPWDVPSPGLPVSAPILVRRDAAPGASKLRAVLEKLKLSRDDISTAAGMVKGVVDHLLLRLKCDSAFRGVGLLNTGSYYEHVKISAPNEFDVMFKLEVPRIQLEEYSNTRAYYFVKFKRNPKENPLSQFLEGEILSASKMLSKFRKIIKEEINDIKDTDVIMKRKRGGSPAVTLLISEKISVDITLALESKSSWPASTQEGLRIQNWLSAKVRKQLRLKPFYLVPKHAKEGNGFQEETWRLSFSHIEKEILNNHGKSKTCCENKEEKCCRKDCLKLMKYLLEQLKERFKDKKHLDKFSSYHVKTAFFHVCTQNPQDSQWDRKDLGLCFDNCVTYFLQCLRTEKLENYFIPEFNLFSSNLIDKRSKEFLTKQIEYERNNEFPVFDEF

Molecule | inhibition of cGAS activity (cGAS [1]) | Kd [4] | fold turn-on [5] | Kd [5] | fold turn-on [4] | fold turn-on [6] | Kd [6] | also measured
Cc1c2oc3c(C)ccc(C(=O)N[C@@H]4C(=O)N[C@H](C(C)C)C(=O)N5CCC[C@H]5C(=O)N(C)CC(=O)N(C)[C@@H](C(C)C)C(=O)O[C@@H]4C)c3nc-2c(C(=O)N[C@@H]2C(=O)N[C@H](C(C)C)C(=O)N3CCC[C@H]3C(=O)N(C)CC(=O)N(C)[C@@H](C(C)C)C(=O)O[C@@H]2C)c(N)c1=O [Actinomycin D] (I: T[dV]P[Sar][NMeV] / II: T[dV]P[Sar][NMeV]; ester I:1-I:C, II:1-II:C; linker I:N-II:N via Actinocin(9to1)) | partial inhibition | – | – | – | – | – | – | –
CCN(CC)CCCC(C)Nc1c2ccc(Cl)cc2nc2ccc(OC)cc12 (centres unmarked) [Quinacrine] | fully inhibited | – | – | – | – | – | – | effect on fluorescence of Spinach2 aptamer (Spinach2 aptamer): decreased fluorescence; IC50 (cGAS [2]): 13 µM; IC50 (cGAS [3]): 39 ± 7 µM
CN(C)c1ccc2nc3ccc(=[N+](C)C)cc-3sc2c1 [methylene blue] | no effect | – | – | – | – | – | – | –
Bh P1-5delC: Bh GEMM-II riboswitch fused to Spinach2 via 5 base-paired P1 stem with deletion of a single C, SEQ ID NO: 16 (nucleic acid, synthetic nucleic acid) GATGTAACTGAATGAAATGGTGAAGGACGGGTCCAATAGGGAAGCAACGAAGCATAGCCTTTATATGGACACTTGGGTTATGTGGAGCTACTAGTGTAACCGGCCCTCTTTGTTGAGTAGAGTGTGAGCTCCGTAACTAGTTACATC | – | 0.021 ± 0.008 µM | (5.1x) fold | 13.4 ± 0.9 µM | – | – | – | –
Bh P1-6 WT: GEMM-II riboswitch (Bacillus halodurans C-125)-Spinach2 biosensor, 6 base-paired P1 stem, SEQ ID NO: 12 (nucleic acid, synthetic nucleic acid) GATGTAACTGAATGAAATGGTGAAGGACGGGTCCAAATAGGGAAGCAACGAAGCATAGCCTTTATATGGACACTTGGGTTATGTGGAGCTACTAGTGTAACCGGCCCTCCTTTTGTTGAGTAGAGTGTGAGCTCCGTAACTAGTTACATC | – | 0.056 µM | – | – | (13.1x) fold | (10.8x) fold | > 11 µM | fluorescence activation with c-di-GMP ([4]; FIG. 17, panel B screen): 5 fold; Kd ([6]; listed as wild-type Bh P1-6): > 10 µM; fluorescence response to 2′,3′-cGAMP (in words) ([5]; 20 μM ligand): no response
Bh P1-6 G103A: Bh P1-6 biosensor with G103A mutation in the binding pocket, SEQ ID NO: 18; G73A in b172, b180 likely the same (nucleic acid, synthetic nucleic acid, G73A, b180 likely the same) GATGTAACTGAATGAAATGGTGAAGGACGGGTCCAAATAGGGAAGCAACGAAGCATAGCCTTTATATGGACACTTGGGTTATGTGGAGCTACTAGTGTAACCAGCCCTCCTTTTGTTGAGTAGAGTGTGAGCTCCGTAACTAGTTACATC | – | > 7.4 µM | (10.3) fold | > 65 µM | (8.2x) fold | (9.6x) fold | 0.8 µM | reduction of binding affinity to c-di-GMP relative to wild-type Bh P1-6 ([4]; G103A versus wild-type): more than 125 fold; increase of binding affinity to 3′,3′-cGAMP relative to wild-type Bh P1-6 ([6]; G103A versus wild-type): more than 10 fold; fluorescence activation in response to 2′,3′-cGAMP ([5]; 200 nM biosensor, 20 μM ligand): 5 fold; cellular fluorescence activation upon co-expression of each enzyme (E. coli BL21-Star cells): Significant fluorescence activation

From patent US20190161754A1, “FLUORESCENT BIOSENSOR FOR 2', 3'-CGAMP” (The Regents of the University of California, priority 2016, published 2019)
